Among the data in article PMC8836243 are increase in potency in Gαi signalling (BRET) with 10 μM long C21TP (CCL21 81-111) added, increase in potency in Gαi signalling (BRET) with 10 μM short C21TP (CCL21 89-106) added and potency in Gαi signalling (BRET), against WT CCL19 values, retold here.

Assay [1] addresses Human CCR7 WT (human) (UniProt P32248).
Assay [2] has the same target. This is another data set of the same source.

Read-outs that look alike come from different tables or passages of the source.

UniProt P32248, sequence (P32248 25-378): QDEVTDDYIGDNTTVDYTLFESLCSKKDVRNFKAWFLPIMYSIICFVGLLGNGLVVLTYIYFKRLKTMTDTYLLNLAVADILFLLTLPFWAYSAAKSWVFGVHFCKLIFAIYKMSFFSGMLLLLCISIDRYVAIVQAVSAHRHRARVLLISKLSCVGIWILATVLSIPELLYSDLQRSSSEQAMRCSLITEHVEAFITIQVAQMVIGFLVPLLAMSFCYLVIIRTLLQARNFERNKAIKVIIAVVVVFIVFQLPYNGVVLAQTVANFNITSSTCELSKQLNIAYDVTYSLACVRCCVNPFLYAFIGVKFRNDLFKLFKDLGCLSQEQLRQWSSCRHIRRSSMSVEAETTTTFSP

In assay [1], “CCL19 K71A K73A R74A R75A (CCL19 AMAAA^71-75) (ligand)” registered an increase in potency in Gαi signalling (BRET) with 10 μM long C21TP (CCL21 81-111) added of 3 fold; an increase in potency in Gαi signalling (BRET) with 10 μM short C21TP (CCL21 89-106) added of 3.5 fold; a potency in Gαi signalling (BRET), against WT CCL19 of 22 fold.
Take “CCL21 1-91 C80A (from UniProt O00585 24-114) (ligand)”: in assay [2], the increase in potency in Gαi signalling (BRET) with 10 μM long C21TP (CCL21 81-111) added stood at 19.7 fold and the increase in potency in Gαi signalling (BRET) with 10 μM short C21TP (CCL21 89-106) added was 16.6 fold.
